Test results from patent publication US20060251625A1 (published 2006).

T1: Receptor Interacting Protein RIP (UniProt Q13546 1-671, limits assumed)
T1 sequence (looked up): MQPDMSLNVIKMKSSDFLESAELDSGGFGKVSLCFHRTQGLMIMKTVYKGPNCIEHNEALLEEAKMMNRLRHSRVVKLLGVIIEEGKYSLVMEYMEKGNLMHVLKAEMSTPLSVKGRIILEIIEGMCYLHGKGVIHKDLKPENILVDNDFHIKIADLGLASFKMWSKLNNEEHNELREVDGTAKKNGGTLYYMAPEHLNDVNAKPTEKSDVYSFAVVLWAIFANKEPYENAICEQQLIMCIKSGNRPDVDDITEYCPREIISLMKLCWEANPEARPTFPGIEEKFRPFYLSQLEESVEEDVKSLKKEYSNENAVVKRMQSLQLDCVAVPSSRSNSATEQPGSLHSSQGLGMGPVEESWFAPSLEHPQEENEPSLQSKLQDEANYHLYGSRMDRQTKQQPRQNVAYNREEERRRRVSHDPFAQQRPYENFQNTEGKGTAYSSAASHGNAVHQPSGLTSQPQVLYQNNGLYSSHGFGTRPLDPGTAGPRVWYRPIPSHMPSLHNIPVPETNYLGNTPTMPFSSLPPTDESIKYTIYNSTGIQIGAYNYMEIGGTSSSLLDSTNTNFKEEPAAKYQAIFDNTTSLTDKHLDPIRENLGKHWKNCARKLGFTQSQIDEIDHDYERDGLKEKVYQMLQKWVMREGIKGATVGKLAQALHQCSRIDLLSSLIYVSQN

T2: TNF Receptor Associated Factor 2 TRAF2 (UniProt Q12933 1-501, limits assumed)
T2 sequence (looked up): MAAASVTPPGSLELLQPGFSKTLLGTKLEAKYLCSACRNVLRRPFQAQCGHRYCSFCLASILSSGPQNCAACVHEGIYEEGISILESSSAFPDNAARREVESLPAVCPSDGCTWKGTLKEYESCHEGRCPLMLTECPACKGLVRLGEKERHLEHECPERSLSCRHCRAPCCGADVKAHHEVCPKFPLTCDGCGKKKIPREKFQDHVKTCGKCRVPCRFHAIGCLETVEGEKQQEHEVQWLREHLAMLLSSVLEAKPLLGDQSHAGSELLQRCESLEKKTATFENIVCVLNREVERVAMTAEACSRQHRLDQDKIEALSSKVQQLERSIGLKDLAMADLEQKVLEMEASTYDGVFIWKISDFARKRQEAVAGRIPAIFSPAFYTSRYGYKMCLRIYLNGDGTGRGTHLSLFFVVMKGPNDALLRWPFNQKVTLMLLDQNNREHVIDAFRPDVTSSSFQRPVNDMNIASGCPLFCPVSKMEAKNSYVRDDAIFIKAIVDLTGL

T3: IKK2 (HA epitope-tagged, expressed from pHA-IKK2), O14920
T3 chain: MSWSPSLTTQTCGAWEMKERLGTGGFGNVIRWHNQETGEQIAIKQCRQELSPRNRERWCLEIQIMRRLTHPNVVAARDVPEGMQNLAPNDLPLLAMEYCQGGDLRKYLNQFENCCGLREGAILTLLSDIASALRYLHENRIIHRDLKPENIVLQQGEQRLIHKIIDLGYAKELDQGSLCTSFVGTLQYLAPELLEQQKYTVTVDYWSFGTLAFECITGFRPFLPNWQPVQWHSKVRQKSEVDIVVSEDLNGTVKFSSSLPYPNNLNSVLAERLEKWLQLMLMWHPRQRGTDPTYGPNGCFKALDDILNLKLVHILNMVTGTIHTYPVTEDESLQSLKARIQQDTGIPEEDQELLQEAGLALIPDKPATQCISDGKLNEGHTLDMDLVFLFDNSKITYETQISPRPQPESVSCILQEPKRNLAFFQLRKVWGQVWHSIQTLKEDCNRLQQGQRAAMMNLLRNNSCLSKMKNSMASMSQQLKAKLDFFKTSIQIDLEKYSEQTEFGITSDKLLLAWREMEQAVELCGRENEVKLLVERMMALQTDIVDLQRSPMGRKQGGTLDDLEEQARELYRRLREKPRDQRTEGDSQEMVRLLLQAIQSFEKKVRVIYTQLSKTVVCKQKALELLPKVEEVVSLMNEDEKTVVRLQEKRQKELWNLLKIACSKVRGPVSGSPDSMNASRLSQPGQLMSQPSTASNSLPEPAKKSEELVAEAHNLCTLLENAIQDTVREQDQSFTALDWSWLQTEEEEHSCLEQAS

B1: Molluscum contagiosum virus (MCV) MC160 protein (other)
chain: MAHEPIPFSFLRNLLAELDASEHEVLRFLCRDVAPASKTAEDALRALQRRRLLTLSSMAELLCALRRFDVLKVRFGMTRECAGRLLGHGFLSQYRLQVAAINNMVGSEDLRVMCLCAGKLLPPSCTPRCLVDLVSALEDAGAISPQDVSVLVTLLHAVCRYDLSVALSAVAHGHMTVGVGTPVQDEPMDVLEVDDAEPMEATPACDEIGVVKLAGAASAGAPLADGAFAACTSAGKGEDLATSDLTDSEPEDSVFAVADPVYADVDLSMFVRANATADSSMFVNADAGADSSLVNADAGADSSLVNADAGADSSLVNAVADANSSLMRTTSACTDSEPEDSAGPSCAGMALSMFGRAKSVSSLLLRTKASY
notes: also called wild type MC160
B2: IKK1 (FLAG epitope-tagged, expressed from pFLAG-IKK1) (protein)
chain: MERPPGLRPGAGGPWEMRERLGTGGFGNVCLYQHRELDLKIAIKSCRLELSTKNRERWCHEIQIMKKLNHANVVKACDVPEELNILIHDVPLLAMEYCSGGDLRKLLNKPENCCGLKESQILSLLSDIGSGIRYLHENKIIHRDLKPENIVLQDVGGKIIHKIIDLGYAKDVDQGSLCTSFVGTLQYLAPELFENKPYTATVDYWSFGTMVFECIAGYRPFLHHLQPFTWHEKIKKKDPKCIFACEEMSGEVRFSSHLPQPNSLCSLVVEPMENWLQLMLNWDPQQRGGPVDLTLKQPRCFVLMDHILNLKIVHILNMTSAKIISFLLPPDESLHSLQSRIERETGINTGSQELLSETGISLDPRKPASQCVLDGVRGCDSYMVYLFDKSKTVYEGPFASRSLSDCVNYIVQDSKIQLPIIQLRKVWAEAVHYVSGLKEDYSRLFQGQRAAMLSLLRYNANLTKMKNTLISASQQLKAKLEFFHKSIQLDLERYSEQMTYGISSEKMLKAWKEMEEKAIHYAEVGVIGYLEDQIMSLHAEIMELQKSPYGRRQGDLMESLEQRAIDLYKQLKHRPSDHSYSDSTEMVKIIVHTVQSQDRVLKELFGHLSKLLGCKQKIIDLLPKVEVALSNIKEADNTVMFMQGKRQKEIWHLLKIACTQSSARSLVGSSLEGAVTPQTSAWLPPTSAEHDHSLSCVVTPQDGETSAQMIEENLNCLGHLSTIIHEANEEQGNSMMNLDWSWLTE

Assays:
[1] = molecular target: T1, Receptor Interacting Protein RIP; assay: not described (data not shown)
[2] = molecular target: T2, TNF Receptor Associated Factor 2 TRAF2; assay: not described (data not shown)
[3] = molecular target: T4, IKK-γ subunit (endogenous, 293T cells) (human, UniProt Q9Y6K9 1-419); assay: co-immunoprecipitation with anti-IKK-γ from 293T lysates, immunoblot (FIG. 7C)
T4 construct: also called endogenous IKK-γ
T4 sequence (Q9Y6K9 whole entry): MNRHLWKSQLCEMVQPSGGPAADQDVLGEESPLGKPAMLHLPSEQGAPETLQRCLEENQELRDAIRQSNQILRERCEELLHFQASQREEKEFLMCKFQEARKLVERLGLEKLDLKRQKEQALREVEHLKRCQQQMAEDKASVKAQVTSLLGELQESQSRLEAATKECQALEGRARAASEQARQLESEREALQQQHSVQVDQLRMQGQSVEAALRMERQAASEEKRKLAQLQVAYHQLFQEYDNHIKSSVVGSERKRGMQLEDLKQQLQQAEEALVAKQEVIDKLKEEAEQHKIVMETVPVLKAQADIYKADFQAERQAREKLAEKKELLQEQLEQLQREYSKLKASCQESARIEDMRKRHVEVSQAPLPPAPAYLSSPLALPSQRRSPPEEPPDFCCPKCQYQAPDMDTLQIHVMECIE

[4] = molecular target: T3, IKK2 (HA epitope-tagged, expressed from …)

Binder	binding result [1]	binding result [2]	binding result [3]	phosphorylation of recombinant IκBα in an in vitro kinase assay of anti-IKK1 immunoprecipitates [4]
B1	no binding	no binding	no binding	–
B2	–	–	–	a phosphorylated form of recombinant IκBα was easily detected
